Laboratory results reported in the supplement of paper PMC12042874.
± gives the uncertainty stated by the source.

Experiment: amyloid nucleation score (Sup35N fusion, yeast selection) (log enrichment); library NNK2; higher = more nucleation; inactive = no reads after selection
Summary of the method: (§1)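 Growth for 7 days at 30°C on medium lacking adenine and uracil followed a 24-hour induction with 100 μM copper sulfate of psi-negative yeast expressing peptides of 20 random codons fused to Sup35N. Input and output plasmid inserts were sequenced with Illumina, and sequences with under 100 input reads were excluded. Nucleation score is the DiMSum log enrichment of output over input reads, centred on the mode score of non-aggregating sequences.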

Row | Substance | amyloid nucleation score
1 | IMPLSKLCMWETIRSDGRRG | 1.07 ± 0.29
2 | MNNDSAFIEYTGHQWIWGVR | 0.269 ± 0.26
3 | DYMDAYGYINRGDPGLIVEV | -0.013 ± 0.53
4 | SLLNTGRYCWC | 1.05 ± 0.35
5 | ARLKLDRRPMKSSMVCIHSA | 6.16 ± 0.089
6 | WFTYQVAYVWYGRNFDTSPA | 7.961 ± 0.067
7 | GYNTRKYWISGYNTTDSPGK | -1.13 ± 0.35
8 | LSLFHPCLL | -0.182 ± 0.3
9 | KKKYACRPAVRFLSIYCWFA | 0.406 ± 0.4
10 | YYVAIVSLWSGVKYVMVKFA | -1.07 ± 0.78
11 | LVQLMMMFWKRGLRDSANMV | -1.13 ± 0.78
12 | STPDVVEAWFL | 0.039 ± 0.46
13 | THYGLMVCQTPVGRRSASCR | 1.32 ± 0.28
14 | FVTTENLVNSLVLNMARAKK | 3.44 ± 0.097
15 | DDMTGDHRPSFRSMIMVGVI | 0.918 ± 0.67
16 | CQSAASVL | -0.148 ± 0.31
17 | QGCLRQVQMRDRATRIGEVI | 0.47 ± 0.25
18 | GPCSSGSDSTCQMPCLAWPG | 0.74 ± 0.51
19 | NSGYIGLGLSF | -0.224 ± 0.65
20 | LVFRMQHSLTHGLLSEPGNR | 2.28 ± 0.17
21 | PCKNIMVYNSLTDAWPCLYM | 0.093 ± 0.8
22 | NRLSELGPCFHLFTSV | 0.089 ± 1.1
23 | PSRMCSCCPLRGSCKDMACR | 0.256 ± 0.18
24 | YNKSSYE | -1.47 ± 1.1

Row | Substance | amyloid nucleation score
25 | HVYLSLEDQGILNSTECMQH | -0.393 ± 1.1
26 | NINRAQHISDVSCPDENLCI | 4.07 ± 0.11
27 | AVWCDFHSERAMCVVGM | 5.249 ± 0.043
28 | PARLCAVVL | 0.066 ± 0.76
29 | GVVISCWRLWWDTDMMHR | 0.007 ± 0.24
30 | VSHMNCLDMICHLWISQLVL | 1.65 ± 0.098
31 | IVCDVLNWPYFVAMAF | 0.25 ± 0.8
32 | PRNRQRSNSTDCGHLITYWD | 0.205 ± 0.62
33 | KSDPAVIPY | 0.713 ± 0.45
34 | IILFTIARDLSRVGFRFLMA | -0.545 ± 0.56
35 | CFDEFTLCKVLWNMFSTFLG | -0.707 ± 1.1
36 | HSLFRLLRTSVHAEKSWSNS | 2.88 ± 0.063
37 | SVLANIMLVVVGNSGKYRSG | 0.627 ± 0.74
38 | KGIAVSVVPYSPVNTGDSAV | 0.632 ± 0.48
39 | DQCPFFSVWWSSLDYSWM | -0.094 ± 1
40 | SYYDGCQS | 0.646 ± 0.49
41 | HMYLDMPAQLTS | 2.69 ± 0.062
42 | RQVSHVNFAVLNINYNWYRS | 8.16 ± 0.084
43 | NRECCTSDLRIMNVLRPL | -0.028 ± 0.18
44 | DCVNGVLFDGSPHVYGFLEW | 0.419 ± 0.32
45 | FTLGANLT | -0.855 ± 0.76
46 | SVTGPILICVSLIASFRRSM | 4.27 ± 0.061
47 | NKRPSRTNLWIKALVRP | inactive
48 | RSLLVEFRRYKQRH | 6.238 ± 0.062

Row | Substance | amyloid nucleation score
49 | IFQRWHIS | -2.67 ± 1.1
50 | PPGFMYLYCGLYAQSSRSSW | 0.546 ± 0.5
51 | YLFSLKQLWF | 5.06 ± 0.078
52 | PGHNQKERLLQLRSI | inactive
53 | RPNFFVLNSNMNNYVQARVP | 4.59 ± 0.047
54 | LAGIRCVIDRLMLCRVDAIK | -0.656 ± 0.28
55 | LRDLLLVRTSSCDSYMWLSP | -0.254 ± 1
56 | KRNMSCVLYIWDWHPASLLM | inactive
57 | DTWEELFKNRDNPRRKCVGL | 1.32 ± 0.41
58 | SNCRLGKGYYNCF | -0.833 ± 0.41
59 | VFSTTSLNV | -0.647 ± 0.34
60 | FSSIDWLCRRCSQGNRAGID | 0.371 ± 0.66
61 | SGSGNLFA | -0.545 ± 0.45
62 | NRISGLGMSSKGKRGKVMLK | 0.493 ± 0.46
63 | LLVML | 0.851 ± 0.46
64 | YLIISMRFISSTQYRFFSVH | 0.498 ± 0.19
65 | CASMVIMG | inactive
66 | YRVSIMYDAWDGLARWFYRR | 0.507 ± 0.46
67 | NRWYKLRLYICYDLRIAVFN | -1.58 ± 1.1
68 | SSSFHKYRRALWKRKRTWVV | 5.63 ± 0.081
69 | CPSFMNSFDASRNIWIVPSG | 3.28 ± 0.058
70 | TRTGCDMGRRLVCS | 0.171 ± 0.35
71 | DTKRVSINVRDNVTLRSFSW | -0.392 ± 0.33

Experiment: amyloid nucleation score (Sup35N fusion, yeast selection) (log enrichment); library NNK1; higher = more nucleation; inactive = no reads after selection
Summary of the method: as §1

Row | Substance | amyloid nucleation score
72 | CLVHVRVSHNWDVTMMFGVR | 0.555 ± 0.24
73 | IYGGYEK | 0.626 ± 0.84
74 | HLRRYMDRYRRGQYGFSYFW | 1.09 ± 0.64
75 | CYSKKVLHCFKTSCLTLQVT | 1.27 ± 0.42
76 | LACSVAA | -0.493 ± 0.34
77 | GKCLIMKQRLALKSFFNFQC | inactive
78 | EFKWYFAISDKCYVRLKLIK | 0.751 ± 0.45
79 | RSCGQFLSWSACPFVSLRRR | 0.274 ± 0.46
80 | YVVFMYFAF | 5.9 ± 0.068
81 | VLGLGRENSLRVNFYRLCKS | inactive
82 | RGSIRIKDMTCGLEIGIALR | -0.001 ± 0.44
83 | AQNLDPQWWCLVRCDCYPL | -0.49 ± 0.65
84 | GVTVKGASS | -0.734 ± 0.66
85 | GWSNNCAFNLQFGISKKN | 1.54 ± 0.47
86 | RSSLVLTFELFRFGMYHQEM | 1.28 ± 0.15
87 | SSGFTLTSVRMGEMSTANNG | 1.1 ± 0.66
88 | ECGYFRLVSGERYTPVSSMR | -0.139 ± 0.37
89 | LCGTMWAG | 0.62 ± 0.51
90 | LKWGMVLGAYIHEFGCNM | 0.804 ± 0.61
91 | NQTNIMCSPNIICSVSGQSG | 6.743 ± 0.047
92 | IGMALKWNFLCKSSDRFLRV | 0.296 ± 0.97
93 | VDIKFFMGLAFMWRYSSTAD | -0.063 ± 0.39
94 | FNDEHKSSIG | -0.549 ± 0.58
95 | QGVGSDVTSIYTV | -0.884 ± 2.4
96 | ISCTNCLKCPLYTSFRPLLC | -0.13 ± 0.44

Row | Substance | amyloid nucleation score
97 | AQAVLQLETRTIKIYRDGPK | -1.08 ± 2.7
98 | FESTPLVGHTRASSRYCARF | -0.742 ± 2.1
99 | WARESRIHTYVRVMFSGKWG | 0.517 ± 0.54
100 | FLIYVQYTKYSLWAPVFIHR | inactive
101 | TRNSDNVWKFEGVFHNLETW | 0.43 ± 0.48
102 | SDLCSLLASQRFLRRSGYKL | inactive
103 | FWTAPKLARDMSVLVTVFFY | -1.4 ± 2.1
104 | LHRALYLDRQLISWGTVSQM | -0.332 ± 0.42
105 | TFRCKSCDLLYHRLENWSDW | 2.66 ± 0.12
106 | MRLSNYFTGRDWGF | -0.046 ± 0.43
107 | DMLSEIFGSSPNEYAPH | 0.521 ± 0.29
108 | GELTIYCSVVPYVVSR | 0.415 ± 0.44
109 | LEITTHTSGIILMKGTPLRR | 3.14 ± 0.087
110 | GFHEIMLYYSYIKVLVIDSH | 0.387 ± 0.75
111 | MFFVSI | 0.41 ± 0.22
112 | ASNGVN | -0.099 ± 0.5
113 | KTCYLQ | -0.284 ± 1.1
114 | VVEKYSCIRESFHEGFG | -1.07 ± 1.7
115 | GHYRFVSFRFSWAEGAQLRG | 1.68 ± 0.25
116 | SHASSSSSGCAYQSLVIWIN | 4.45 ± 0.081
117 | EFLNSNLLNTYMKLFLIITH | 3.36 ± 0.21
118 | SEICLLVSSKSGHDAQSTIS | -0.011 ± 1.2
119 | HRSRITLANVS | -0.666 ± 0.32
120 | HERDIQSSIGDWNKLSKPCN | -0.418 ± 0.31
121 | GCILHFHSGRGYIGSRMVGW | 1.31 ± 0.32

Row | Substance | amyloid nucleation score
122 | RMYYAFVCGGEDMESEFPCY | -0.037 ± 1.4
123 | SETYSSVAWRTMVVAAELVD | 0.822 ± 0.95
124 | SNTSMHRLLLIIVGKNMNVV | 0.261 ± 1
125 | QFMMS | 0.052 ± 0.29
126 | YCIASSVGWFVFVIWPLRKS | 0.065 ± 0.56
127 | TLRWGNYKLLQIVYITVWRD | 0.541 ± 0.28
128 | SGWRSHKLLVSSSCMNARSY | -0.837 ± 0.48
129 | MRSWIVIMALKM | -1.34 ± 0.85
130 | RSIRC | -0.615 ± 1.1
131 | NCTWITGIFS | 0.044 ± 0.35
132 | IESEGSWRIHWK | 0.638 ± 0.39
133 | KPDRQVANFRDWFG | -0.244 ± 1.2
134 | VTLSTAIVTNEFMSDISTGY | -0.712 ± 0.52
135 | QGCIVQGAASEIEANLAQLS | 1.08 ± 0.59
136 | RWGAYVYGQSVSINGIRIVL | 6.665 ± 0.045
137 | CVFRSYWVCLWSDNNGDVR | 8.325 ± 0.07
138 | GTLRHDVMRQLTFLCYFINL | 0.047 ± 0.72
139 | QVNDIGP | -0.341 ± 0.22
140 | HYQERC | -0.604 ± 0.34
141 | DSYSLSN | -0.179 ± 0.27
142 | LCWTIWV | -1.61 ± 2.4
143 | RVMVFGRHNEDVSKFSISGK | 4 ± 0.1
144 | IECVS | -0.251 ± 0.68
145 | WSSYGCAAEMDALVCHGDAF | 1.47 ± 0.88
146 | EGPMLVCVLVVSTTGIGRGC | 1.58 ± 0.59

Row | Substance | amyloid nucleation score
147 | TQRVIGERRMNADCRACRLR | -0.061 ± 1.6
148 | NTKTNGTSIGNSTVVLHLIA | 6.409 ± 0.057
149 | TTRSSGIFSDEGKQACSDRG | 0.091 ± 0.74
150 | DATTTLFL | -0.281 ± 0.77
151 | NYLGS | -0.481 ± 0.33
152 | LATNFCDTMRYVNGFRIAWC | 0.647 ± 0.66
153 | NKWYVF | 0.071 ± 1.1
154 | EVYKHHYLA | 0.044 ± 0.47
155 | DLIYTDGLV | -0.743 ± 0.24
156 | TGLDNHNICNRDTR | -0.034 ± 0.62
157 | FYVRCREMSRGVWWSTSVR | -0.188 ± 0.34
158 | RHVGVAGFRFLPGPCDWPAR | 3.94 ± 0.14
159 | IGMRCWTACSSKRFESCRRV | 0.743 ± 0.44
160 | SIYET | 0.524 ± 0.49
161 | SYSINLPLLPRCN | 1.02 ± 0.57
162 | YVLIVNWIRSK | 4.42 ± 0.075
163 | WLEGLKYKLAVDGRFNQSWG | -0.086 ± 0.81
164 | YWSQTRFYSMALSRSDSERT | 0.135 ± 0.27
165 | ELEPCDPGF | inactive
166 | GTNYYSSGML | 0.114 ± 0.35
167 | WAILNDVMYHMWLNTFRTNV | -0.295 ± 0.64
168 | VRRGFGPIITLYNFIISIWF | 0.895 ± 0.79
169 | DVTLMCYRQCLDMDMPIDLG | 0.733 ± 0.32
170 | RYLLKLFRIVGFGVVFMMSK | -0.511 ± 0.34
171 | NDSNSPIFPGGDHPWCGFDW | 0.089 ± 0.88
